Results taken from patent publication US20050112126A1 (Genentech, published 2005).
Where a chain is given by its changes, count along the chain named. In names and notes the source's numbering stands. Several values for one entry are separate records, joined by “and”; a condition that tells them apart may be missing. Equal entries are not always repeated. Where two headings read alike, the source gives them in different places.

T1: VEGF121 (human, UniProt P15692 27-147)
T1 construct: mature; Immobilized on the biosensor chip via primary amino groups; also called Purified VEGF121
T1 sequence (looked up): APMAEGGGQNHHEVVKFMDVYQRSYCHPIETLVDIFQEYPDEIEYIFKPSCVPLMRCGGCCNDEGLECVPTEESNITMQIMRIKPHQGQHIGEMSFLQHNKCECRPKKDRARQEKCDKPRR

B1: chimeric F(ab) (Fab, V domains shown)
VH: EIQLVQSGPELKQPGETVRISCKASGYTFTNYGMNWVKQAPGKGLKWMGWINTYTGEPTYAADFKRRFTFSLETSASTAYLQISNLKNDDTATYFCAKYPHYYGSSHWYFDVWGAGTTVTVSS
VL: DIQMTQTTSSLSASLGDRVIISCSASQDISNYLNWYQQKPDGTVKVLIYFTSSLHSGVPSRFSGSGSGTDYSLTISNLEPEDIATYYCQQYSTVPWTFGGGTKLEIKR
notes: also called chim-F(ab); A4.6.1 chimera
B2: muMAb VEGF A.4.6.1 (antibody, V domains shown)
VH: B1 VH
VL: B1 VL
notes: Original murine IgG1 antibody purified from ascites; also called murIgG1; murine mAb A4.6.1
B3: chIgG1 (antibody, V domains shown)
VH: B1 VH
VL: B1 VL
notes: Murine A4.6.1 VL and VH fused to human kappa CL and human IgG1 heavy chain constant domains; also called chimeric IgG1
B4: Y0238-1 (Fab, V domains shown)
VH: EVQLVESGGGLVQPGGSLRLSCAASGYTFTNYGINWVRQAPGKGLEWVGWINTYTGEPTYAADFKRRFTFSLDTSKSTAYLQMNSLRAEDTAVYYCAKYPYYRGTSHWYFDVWGQGTL
VL: DIQLTQSPSSLSASVGDRVTITCRANEQLSNYLNWYQQKPGKAPKVLIYFTSSLHSGVPSRFSGSGSGTDFTLTISSLQPEDFATYYCQQYSTVPWTFGQGTKVEIKR
notes: From library YC-81 on the pY0192 template; Soluble Fab
B5: Y0244-1 (Fab, V domains shown)
VH: B4 VH with L72V, T74V, Y101H, R103Y, T105S
VL: B4 VL
notes: Soluble Fab
B6: Y0313-1 (Fab, V domains shown)
VH: B4 VH with T28D, N31H, I34M, R103Y
VL: B4 VL
notes: Soluble Fab; Y0243-1 with VH3 H101Y and S105T
B7: Y0238-10 (Fab, V domains shown)
VH: B4 VH with G104N
VL: B4 VL
notes: as for B4
B8: Y0244-4 (Fab, V domains shown)
VH: B4 VH with L72I, T74K, Y101H, R103Y, T105S
VL: B4 VL
notes: Soluble Fab
B9: Y0238-5 (Fab, V domains shown)
VH: B4 VH with R103I, G104A, T105K
VL: B4 VL
notes: as for B4
B10: Y0238-3 (Fab, V domains shown)
VH: B4 VH with R103Y
VL: B4 VL
notes: Soluble Fab
B11: Y0313-3 (Fab, V domains shown)
VH: B4 VH with R103Y, T105S
VL: B4 VL
notes: Soluble Fab
B12: Y0238-7 (Fab, V domains shown)
VH: B4 VH with R103W
VL: B4 VL
notes: as for B4
B13: Y0243-1 (Fab, V domains shown)
VH: B4 VH with T28D, N31H, I34M, Y101H, R103Y, T105S
VL: B4 VL
notes: Soluble Fab
B14: F(ab)-1 (Fab, V domains shown)
VH: EVQLVESGGGLVQPGGSLRLSCAASGYTFTNYGMNWVRQAPGKGLEWVGWINTYTGEPTYAADFKRRFTISRDNSKNTLYLQMNSLRAEDTAVYYCARYPHYYGSSHWYFDVWGQGTLVTVSS
VL: DIQMTQSPSSLSASVGDRVTITCSASQDISNYLNWYQQKPGKAPKLLIYFTSSLHSGVPSRFSGSGSGTDFTLTISSLQPEDFATYYCQQYSTVPWTFGQGTKVEIK
B15: F(ab)-8 (Fab, V domains shown)
VH: B14 VH with I70F, R72L, N74T, L79A
VL: B14 VL with L46V
notes: F(ab)-5 with IleH69Phe and LeuH78Ala; Kabat numbers; Fab with human CH1 and CL
B16: F(ab)-9 (Fab, V domains shown)
VH: B14 VH with G49A, I70F, R72L, N74T, L79A
VL: B14 VL with L46V
notes: F(ab)-8 with GlyH49Ala; Kabat numbers; Fab with human CH1 and CL

Columns and labels:
VEGF [1] = biological target: T2, VEGF (human, UniProt P15692-4 27-191, limits assumed); assay: BIAcore SPR, F(ab) over immobilized VEGF
T2 construct: Biotinylated in the KDR-IgG ELISA, amine-coupled to the chip in BIAcore; also called biotinylated VEGF; vascular endothelial growth factor
From the text: (§1) BIAcore™ Biosensor Assay: VEGF binding of the humanized and chimeric F(ab)s were compared using a BIAcore™ biosensor (Karlsson et al. Methods: A Comparison to Methods in Enzymology 6:97-108 (1994)). […] VEGF was coupled to a CM-5 biosensor chip through primary amine groups according to manufacturer's instructions (Pharmacia). […] Data points from 0-4500 sec were used for off-rate kinetic analysis. The dissociation rate constant (koff) was obtained from the slope of the plot of ln(R0/R) versus time, where R0 is the signal at t=0 and R is the signal at each time point.
(§2) The slope, Kₛ, was obtained from the plot of ln(−dR/dt) versus time for each F(ab) concentration using the BIAcore™ kinetics evaluation software as described in the Pharmacia Biosensor manual. R is the signal at time t. […] The association rate constant (kₒₙ) was obtained from the slope of the plot of Kₛ versus F(ab) concentration. At the end of each cycle, bound F(ab) was removed by injecting 5 μl of 50 mM HCl at a flow rate of 20 μl/min to regenerate the chip.

VEGF121 = biological target: T1, VEGF121; assay: BIAcore SPR, Fab over immobilized VEGF121
Experimental: VEGF₁₂₁ was covalently immobilized on the biosensorchip via primary amino groups. Binding of humanized A4.6.1 Fab variants was measured by flowing solutions of Fab in PBS/0.05% TWEEN 20™ over the chip at a flow rate of 20 μL/min. Following each binding measurement, residual Fab was stripped from the immobilized ligand by washing with 5 μL of 50 mM aqueous HCl at 3 μL/min. Binding profiles were analyzed by nonlinear regression using a simple monovalent binding model (BIAevaluation software v2.0; Pharmacia).

VEGF [2] = biological target: T2, VEGF; assay: competition ELISA (biotinylated VEGF to KDR-IgG)
Experimental: (§3) Standards (6.9-440 ng/ml chimeric F(ab)) and two-fold serial of samples were incubated with 2 nM biotinylated VEGF for 1 h in tubes. The solutions from the tubes were then transferred to the ELISA plates and incubated for 1 h. […] Titration curves were fit with a four-parameter nonlinear regression curve-fitting program (KaleidaGraph, Synergy Software, Reading Pa.). […] Assays for full-length IgG were the same as for the F(ab)s except that the assay buffer contained 10% human serum.

VEGF [3] = biological target: T2, VEGF; assay: BIAcore SPR, F(ab) over immobilized VEGF, koff/kon
From the text: as §1, §2

VEGF [4] = biological target: T2, VEGF; assay: competition ELISA (biotinylated VEGF to KDR-IgG), 10% human serum
Experimental: as §3

VEGF [5] = biological target: T2, VEGF; assay: BIAcore-2000 SPR, relative to Y0192
Experimental: (§4) BIAcore Analysis: The VEGF-binding affinities of Fab fragments were calculated from association and dissociation rate constants measured using a BIAcore-2000™ surface plasmon resonance system (BIAcore, Inc., Piscataway, N.J.). A biosensor chip was activated for covalent coupling of VEGF using N-ethyl-N′-(3-dimethylaminopropyl)-carbodiimide hydrochloride (EDC) and N-hydroxysuccinimide (NHS) according to the supplier's (BIAcore, Inc., Piscataway, N.J.) instructions. VEGF was buffered exchanged into 20 mM sodium acetate, pH 4.8 and diluted to approximately 50 μg/mL. An aliquot (35 μL) was injected at a flow rate of 2 μL/min to achieve approximately 700-1400 response units (RU) of coupled protein. Finally, 1 M ethanolamine was injected as a blocking agent.
(§5) For kinetics measurements, two-fold serial dilutions of Fab were injected in PBS/TWEEN™ buffer (0.05% TWEEN 20™ in phosphate buffered saline) at 25° C. at a flow rate of 10 μL/min. […] Equilibrium dissociation constants, Kd's from surface plasmon resonance (SPR) measurements were calculated as koff/kon.

VEGF [6] = biological target: T2, VEGF; assay: BIAcore-2000 SPR, Fab over immobilized VEGF, 25 C
Experimental: as §4, §5

rhVEGF165 [7] = biological target: T3, rhVEGF165 (human, UniProt P15692 27-191); assay: cell-based or functional assay
rhVEGF165 [8] = biological target: T3, rhVEGF165; assay: cell-based or functional assay; remark: listed apart in the source
VEGF [9] = biological target: T2, VEGF; assay: BIAcore-2000 SPR, Fab over immobilized VEGF, 25 C; off-rate near detection limit
Experimental: as §4, §5

VEGF [10] = biological target: T2, VEGF; assay: competition ELISA (biotinylated VEGF to KDR-IgG); remark: listed apart in the source

| Binder | Kd (wt)/Kd (mut) (VEGF [5]) [ratio] | Kd (VEGF [6]) [nM] | koff (VEGF [6]) [s⁻¹] | kon (VEGF [6]) [M⁻¹ s⁻¹] | further results |
| --- | --- | --- | --- | --- | --- |
| B1 |  |  |  |  | koff (VEGF [1]): 5.9e-05 s⁻¹; kon (VEGF [1]): 65000 M⁻¹ s⁻¹; Kd (VEGF121): 1.6 nM; koff (VEGF121): 8.5e-05 s⁻¹; kon (VEGF121): 54000 M⁻¹ s⁻¹; EC50 (VEGF [2]): 0.049 µg/mL and 1 nM; EC50 F(ab)-X / EC50 chimeric F(ab) (VEGF [2]): 1 ratio; Kd (VEGF [3]): 0.91 nM |
| B2 |  |  |  |  | IgG1/chIgG1 (EC50 ratio) (VEGF [4]): 0.759 ratio |
| B3 |  |  |  |  | EC50 (VEGF [4]): 0.113 µg/mL and 0.75 nM; IgG1/chIgG1 (EC50 ratio) (VEGF [4]): 1 ratio |
| B4 | 7.3 | 0.4 | 9e-06 | 26000 |  |
| B5 | 3.6 | 8 | 0.00027 | 34000 |  |
| B6 | ≥ 20 | ≤ 0.15 |  | 35000 | fold potency over the wild-type Fab (Y0192), inhibition of VEGF-induced HuVEC growth (rhVEGF165 [7]): > 30 fold; IC50 (read off the curve) (rhVEGF165 [8]): ~0.5 nM; koff (VEGF [9]): ≤ 5.4e-06 s⁻¹ |
| B7 | 4.8 | 0.6 | 9e-06 | 16000 |  |
| B8 | 0.9 | 3.3 | 0.00017 | 52000 |  |
| B9 | 3.2 | 0.9 | 8e-06 | 8000 |  |
| B10 | ≥ 14 | ≤ 0.2 |  | 17000 | koff (VEGF [9]): ≤ 4e-06 s⁻¹ |
| B11 | 4.5 | 0.65 | 8.1e-06 | 12000 |  |
| B12 | ≥ 7.3 | ≤ 0.4 |  | 15000 | koff (VEGF [9]): ≤ 6e-06 s⁻¹ |
| B13 | 4.1 | 0.7 | 4.5e-05 | 67000 |  |
| B14 |  |  |  |  | EC50 F(ab)-X / EC50 chimeric F(ab) (VEGF [10]): > 1350; fold reduction of binding affinity from the chimeric F(ab) (VEGF [10]): > 1000 fold |
| B15 |  |  |  |  | EC50 F(ab)-X / EC50 chimeric F(ab) (VEGF [2]): 9.6 ratio; fold improvement in binding vs F(ab)-5 (VEGF [2]): 8 fold |
| B16 |  |  |  |  | EC50 F(ab)-X / EC50 chimeric F(ab) (VEGF [2]): > 150 ratio; fold reduction in binding vs F(ab)-8 (VEGF [2]): 15 fold |
